Results published in patent US20150315289A1.
pEC50: −log10 of the molar value. Blank lines part the entries; values can stand above or below the substance they belong to.

How the values were obtained:
[1] = target: human MUC5AC (native mucin) (human) (UniProt P98088); experiment: sandwich EIA: hPAM4 capture of antigen from CPM1, murine MAb probe at 10 µg/mL
[2] = target: human MUC5AC (native mucin) (human) (UniProt P98088); experiment: inhibition EIA on CPM1-coated plates; competitor hPAM4 at […]
[3] = target: human MUC5AC (native mucin) (human) (UniProt P98088); experiment: ELISA on target mucin antigen
[4] = target: IMP-288 di-HSG hapten-peptide; experiment: elution analysis of radiolabeled peptide with TF10 (not shown)
[5] = target: human MUC5AC (native mucin) (human) (UniProt P98088); experiment: binding of radioiodinated TF10 to MUC5AC (not shown)
[6] = target: human MUC5AC (native mucin) (human) (UniProt P98088); experiment: elution analysis of 111In-IMP-288/TF10 with excess mucin

Kd [1]: 14.3 µg/mL
ICmax (maximal inhibition) [2]: 25.5%
Substance: 45M1 anti-MUC5AC mouse monoclonal antibody

pEC50 [3]: 8.74
Substance: PAM4-F(ab′)2

percent of 111In-IMP-288 bound [4]: 90%
immunoreactive fraction [5]: 87%
percent of TF10-bound 111In-IMP-288 eluting at higher molecular weight with excess mucin [6]: 92%
Substance: TF10 bispecific ([hPAM4]2 x h679) DNL construct (bispecific antibody)
